{"source": "patent US20230250156A1", "target": "SARS-CoV-2 RBD protein (SARS-CoV-2) (UniProt P0DTC2)", "note": "“And” between values parts separate entries of the source, which are not always exact repeats. Equal entries are not always repeated."}
{"substance": "ACE2 Ig-TD Quad (ACE2(18-615) Ig-TD) (Fc fusion)", "values": [{"measurement": "IC50", "result": "0.45 nM and 0.449 nM"}]}
